Assay results: patent US12139520B2 (priority 2020, dated 2024)
Numbered stars: 1 amine (or outer) side, 2 acyl side, 3 side chain; on linkers, the order of the positions; unused ones are H or OH. Bridge positions count the residues as written; N and C are the ends. Square brackets hold non-standard residues; d marks the D form. Side chains are listed from the residue outwards. Ends that are not written are not given here. * marks the point of attachment. C20 diacid = O=C(O)CCCCCCCCCCCCCCCCCCC(=O)*; γGlu = O=C(O)[C@H](CCC(=O)[*:2])N[*:1]; Hyp = O=C(O)[C@@H]1C[C@@H](O)CN1; Trx = NC[C@H]1CC[C@H](C(=O)O)CC1; AEEA = NCCOCCOCC(=O)O; Aib = CC(C)(N)C(=O)O

T1: hAMY3R (human, UniProt P30988)
T1 sequence 1: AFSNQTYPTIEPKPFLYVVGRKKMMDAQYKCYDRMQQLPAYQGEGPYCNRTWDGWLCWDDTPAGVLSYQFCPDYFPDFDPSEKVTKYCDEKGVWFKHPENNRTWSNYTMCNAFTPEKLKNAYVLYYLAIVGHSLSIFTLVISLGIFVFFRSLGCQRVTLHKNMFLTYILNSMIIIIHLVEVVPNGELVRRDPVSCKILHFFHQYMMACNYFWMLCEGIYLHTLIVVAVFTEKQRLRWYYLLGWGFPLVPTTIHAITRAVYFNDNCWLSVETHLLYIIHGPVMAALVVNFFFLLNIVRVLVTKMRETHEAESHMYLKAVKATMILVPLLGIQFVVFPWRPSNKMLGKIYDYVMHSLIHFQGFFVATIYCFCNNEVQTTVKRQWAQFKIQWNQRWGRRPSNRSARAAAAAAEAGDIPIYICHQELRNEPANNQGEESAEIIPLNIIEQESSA
T1 sequence 2: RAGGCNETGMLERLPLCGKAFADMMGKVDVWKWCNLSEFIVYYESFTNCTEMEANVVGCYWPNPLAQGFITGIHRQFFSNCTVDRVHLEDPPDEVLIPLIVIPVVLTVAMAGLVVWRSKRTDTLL


What was measured:
[1] = molecular target: T1, hAMY3R; test: cell-based or functional assay
[2] = molecular target: hAM1R (human, UniProt Q16602); test: cell-based or functional assay

Binder | hAMY3R EC50 (cAMP) [1] | hAM1R EC50 (cAMP) [2]
GCRTGTCTVQRLAHQIYQFTDKDKDNVAPRSNVGPQG[Hyp]-NH2 (disulfide 2-7 (inferred); ends not checked) [SEQ ID NO: 121] | 0.026 nM | 2980 nM
GCRFGTCTVQRLAHQIYQFTDKDKDNVAPRTKISPNG[Hyp]-NH2 (disulfide 2-7 (inferred); ends not checked) [SEQ ID NO: 113] | 0.022 nM | 2980 nM
GCRFGTCTVQRLAHQIYQFTDKDKDNVAPRTKVSPQG[Hyp]-NH2 (disulfide 2-7 (inferred); ends not checked) [SEQ ID NO: 132] | 0.031 nM | 2980 nM
KCNTATCATQRLANFLVHSSNNFGAIAPSTKIGPNGY [SEQ ID NO: 128] | 0.028 nM | 130 nM
GCRTGTCTVQRLAHQIYQFTDKDKDNVAPRTNIGPQG[Hyp]-NH2 (disulfide 2-7 (inferred); ends not checked) [SEQ ID NO: 118] | 0.024 nM | 2980 nM
{C20 diacid-γGlu}-KCNTATCTVARLAHQIAQFTDKDKDNVAPPTNVGSNG[Hyp]-NH2 (disulfide 2-7 (inferred); ends not checked) [SEQ ID NO: 107] | 0.019 nM | 647 nM
{C20 diacid-γGlu}-KCNTATCTVDRLAHQIAQFTDKDKDPVAPPTNVGSNG[Hyp]-NH2 (disulfide 2-7 (inferred); ends not checked) [SEQ ID NO: 130] | 0.03 nM | > 5000 nM
GCRFGTCTVQRLAHQIYQFTDKDKDNVAPRTKVSPNG[Hyp]-NH2 (disulfide 2-7 (inferred); ends not checked) [SEQ ID NO: 134] | 0.032 nM | 2980 nM
GCRFGTCTVQRLAHQIYQFTDKDKDNVAPRTKIGPNG[Hyp]-NH2 (disulfide 2-7 (inferred); ends not checked) [SEQ ID NO: 124] | 0.027 nM | 34.8 nM
{C20 diacid-γGlu}-KCNTATCTVARLAEQIYQFTDKDKDPVAPPTNVGSNG[Hyp]-NH2 (disulfide 2-7 (inferred); ends not checked) [SEQ ID NO: 133] | 0.031 nM | > 5000 nM
{C20 diacid-γGlu}-KCNT[Aib]TCTVQRLAHQIYQFTDKDKDNVAPPTNVGSNG[Hyp]-NH2 (disulfide 2-7 (inferred); ends not checked) [SEQ ID NO: 119] | 0.024 nM | > 5000 nM
KCNTATCTVQRLAHAIYQFTDKDKDNVAPPTNVGSNG[Hyp]-NH2 (disulfide 2-7 (inferred); ends not checked) [SEQ ID NO: 13] | 0.007 nM | > 5000 nM
GCRFGTCTVQRLAHFLYQFTDKDGAIAPRTKIGSQGY [SEQ ID NO: 123] | 0.027 nM | 31.7 nM
{C20 diacid-γGlu}-KCNTATCTVQRLAHQIAQFADKDKDNVAPPTNVGSNG[Hyp]-NH2 (disulfide 2-7 (inferred); ends not checked) [SEQ ID NO: 105] | 0.018 nM | > 5000 nM
KCNTATCTVQRLAEQIYQFTDKDKDNK([AEEA-AEEA-γGlu-C20 diacid])APPTNVGSNG[Hyp]-NH2 (disulfide 2-7 (inferred); ends not checked) [SEQ ID NO: 12] | 0.007 nM | > 5000 nM
GCRTGTCTVQRLAHQIYQFTDKDKDNVAPRTKIGPNG[Hyp]-NH2 (disulfide 2-7 (inferred); ends not checked) [SEQ ID NO: 115] | 0.023 nM | 130 nM
{C20 diacid-γGlu}-KCNTATCTVQRLAEQIYQFTAKDKDNVAPPTNVGSNG[Hyp]-NH2 (disulfide 2-7 (inferred); ends not checked) [SEQ ID NO: 106] | 0.018 nM | > 5000 nM

Binder | hAMY3R EC50 (cAMP) [1] | hAM1R EC50 (cAMP) [2]
{C20 diacid-γGlu}-KCNTATCTVQRLAHQINQFTDKDKDNVAPPTNVGSNG[Hyp]-NH2 (disulfide 2-7 (inferred); ends not checked) [SEQ ID NO: 11] | 0.007 nM | > 5000 nM
{C20 diacid-γGlu}-KCNTATCTVQRLAHQIAQFTDKDKDPVAPPTNVGSNS[Hyp]-NH2 (disulfide 2-7 (inferred); ends not checked) [SEQ ID NO: 120] | 0.025 nM | > 5000 nM
KCNTATCTVQRLAHQIYQATDKDKDNVAPPTNVGSNG[Hyp]-NH2 (disulfide 2-7 (inferred); ends not checked) [SEQ ID NO: 114] | 0.022 nM | > 5000 nM
GCRFGTCTVQRLAHQIYQFTDKDKDNVAPRTKIGPQG[Hyp]-NH2 (disulfide 2-7 (inferred); ends not checked) [SEQ ID NO: 111] | 0.021 nM | 2980 nM
{C20 diacid-Trx-γGlu-AEEA-AEEA}-KCNTATCTVQRLAEQIYQFTDKDKDNVAPPTNVGSNG[Hyp]-NH2 (disulfide 2-7 (inferred); ends not checked) [SEQ ID NO: 126] | 0.027 nM | > 5000 nM
GCRFGTCTVQRLAHQIYQFTDKDKDNVAPRSKIGPQG[Hyp]-NH2 (disulfide 2-7 (inferred); ends not checked) [SEQ ID NO: 127] | 0.028 nM | 107 nM
GCRFGTCTVQRLAHQIYQFTDKDKDNVAPRTNVSPQG[Hyp]-NH2 (disulfide 2-7 (inferred); ends not checked) [SEQ ID NO: 125] | 0.027 nM | 2980 nM
{C20 diacid-γGlu}-KCNTATCTVQRLAEQIYQFTDKAKDNVAPPTNVGSNG[Hyp]-NH2 (disulfide 2-7 (inferred); ends not checked) [SEQ ID NO: 122] | 0.026 nM | > 5000 nM
GCRTGTCTVQRLAHQIYQFTDKDKDNVAPRTNVGPQGY [SEQ ID NO: 109] | 0.02 nM | 2980 nM
GCRTGTCTVQRLAHQIYQFTDKDKDNVAPRSKVGPQGY [SEQ ID NO: 129] | 0.029 nM | 367 nM
GCRFGTCTVQRLAHQIYQFTDKDKDNVAPRTNVSPQGY [SEQ ID NO: 116] | 0.024 nM | 48.2 nM
GCRFGTCTVQRLAHQIYQFTDKDKDNVAPRSNVSPQGY [SEQ ID NO: 131] | 0.031 nM | 33.8 nM
{C20 diacid-γGlu}-KCNTATCTVQRLAHQIEQFTDKDKDNVAPPTNVGSNG[Hyp]-NH2 (disulfide 2-7 (inferred); ends not checked) [SEQ ID NO: 110] | 0.02 nM | > 5000 nM
GCRFGTCTVQRLAHFLYQFTDKDKDNVAPRTKVGSNGY [SEQ ID NO: 117] | 0.024 nM | 51.6 nM
{C20 diacid-γGlu}-KCNTATCTVQRLAEQIYQFTDKDKANVAPPTNVGSNG[Hyp]-NH2 (disulfide 2-7 (inferred); ends not checked) [SEQ ID NO: 108] | 0.019 nM | > 5000 nM
{C20 diacid-γGlu}-KCNTATCTVDRLAHQIAQFTDKDKDNVAPPTNVGSNG[Hyp]-NH2 (disulfide 2-7 (inferred); ends not checked) [SEQ ID NO: 112] | 0.021 nM | > 5000 nM
